{
  "source": "patent US20160272693A1",
  "about": "(ZEALAND PHARMA A S, published 2016)",
  "binders": {"B1": {"name": "[19CD]-isoGlu-R-C( )-NTAT-C( )-ATQRLADFLQRSSF-Gly(Me)-A-Ile(Me)-LSSTEVGSGT-Hyp-NH2 (Compd. 81) (peptide)", "peptide": "{C20 diacid-γGlu}-RCNTATCATQRLADFLQRSSF[Sar]A[NMeI]LSSTEVGSGT[Hyp]-NH2", "modifications": "disulfide 2-7", "SMILES": "CC[C@H](C)[C@@H](C(=O)N[C@@H](CC(C)C)C(=O)N[C@@H](CO)C(=O)N[C@@H](CO)C(=O)N[C@H](C(=O)N[C@@H](CCC(=O)O)C(=O)N[C@H](C(=O)NCC(=O)N[C@@H](CO)C(=O)NCC(=O)N[C@H](C(=O)N1C[C@H](O)C[C@H]1C(N)=O)[C@@H](C)O)C(C)C)[C@@H](C)O)N(C)C(=O)[C@H](C)NC(=O)CN(C)C(=O)[C@H](Cc1ccccc1)NC(=O)[C@H](CO)NC(=O)[C@H](CO)NC(=O)[C@H](CCCNC(=N)N)NC(=O)[C@H](CCC(N)=O)NC(=O)[C@H](CC(C)C)NC(=O)[C@H](Cc1ccccc1)NC(=O)[C@H](CC(=O)O)NC(=O)[C@H](C)NC(=O)[C@H](CC(C)C)NC(=O)[C@H](CCCNC(=N)N)NC(=O)[C@H](CCC(N)=O)NC(=O)[C@@H](NC(=O)[C@H](C)NC(=O)[C@@H]1CSSC[C@H](NC(=O)[C@H](CCCNC(=N)N)NC(=O)CC[C@H](NC(=O)CCCCCCCCCCCCCCCCCCC(=O)O)C(=O)O)C(=O)N[C@@H](CC(N)=O)C(=O)N[C@@H]([C@@H](C)O)C(=O)N[C@@H](C)C(=O)N[C@@H]([C@@H](C)O)C(=O)N1)[C@@H](C)O"}, "B2": {"name": "[19CD]-isoGlu-R-C( )-NTAT-C( )-ATQRLAHFLERSSF-Gly(Me)-A-Ile(Me)-LSSTEVGSSTP-NH2 (Compd. 84) (peptide)", "peptide": "{C20 diacid-γGlu}-RCNTATCATQRLAHFLERSSF[Sar]A[NMeI]LSSTEVGSSTP-NH2", "modifications": "disulfide 2-7", "SMILES": "CC[C@H](C)[C@@H](C(=O)N[C@@H](CC(C)C)C(=O)N[C@@H](CO)C(=O)N[C@@H](CO)C(=O)N[C@H](C(=O)N[C@@H](CCC(=O)O)C(=O)N[C@H](C(=O)NCC(=O)N[C@@H](CO)C(=O)N[C@@H](CO)C(=O)N[C@H](C(=O)N1CCC[C@H]1C(N)=O)[C@@H](C)O)C(C)C)[C@@H](C)O)N(C)C(=O)[C@H](C)NC(=O)CN(C)C(=O)[C@H](Cc1ccccc1)NC(=O)[C@H](CO)NC(=O)[C@H](CO)NC(=O)[C@H](CCCNC(=N)N)NC(=O)[C@H](CCC(=O)O)NC(=O)[C@H](CC(C)C)NC(=O)[C@H](Cc1ccccc1)NC(=O)[C@H](Cc1c[nH]cn1)NC(=O)[C@H](C)NC(=O)[C@H](CC(C)C)NC(=O)[C@H](CCCNC(=N)N)NC(=O)[C@H](CCC(N)=O)NC(=O)[C@@H](NC(=O)[C@H](C)NC(=O)[C@@H]1CSSC[C@H](NC(=O)[C@H](CCCNC(=N)N)NC(=O)CC[C@H](NC(=O)CCCCCCCCCCCCCCCCCCC(=O)O)C(=O)O)C(=O)N[C@@H](CC(N)=O)C(=O)N[C@@H]([C@@H](C)O)C(=O)N[C@@H](C)C(=O)N[C@@H]([C@@H](C)O)C(=O)N1)[C@@H](C)O"}, "B3": {"name": "[19CD]-isoGlu-R-C( )-NTAT-C( )-ATQRLADFLQRSSF-Gly(Me)-A-Ile(Me)-LSSTEVGSTT-Hyp-NH2 (Compd. 83) (peptide)", "peptide": "{C20 diacid-γGlu}-RCNTATCATQRLADFLQRSSF[Sar]A[NMeI]LSSTEVGSTT[Hyp]-NH2", "modifications": "disulfide 2-7", "SMILES": "CC[C@H](C)[C@@H](C(=O)N[C@@H](CC(C)C)C(=O)N[C@@H](CO)C(=O)N[C@@H](CO)C(=O)N[C@H](C(=O)N[C@@H](CCC(=O)O)C(=O)N[C@H](C(=O)NCC(=O)N[C@@H](CO)C(=O)N[C@H](C(=O)N[C@H](C(=O)N1C[C@H](O)C[C@H]1C(N)=O)[C@@H](C)O)[C@@H](C)O)C(C)C)[C@@H](C)O)N(C)C(=O)[C@H](C)NC(=O)CN(C)C(=O)[C@H](Cc1ccccc1)NC(=O)[C@H](CO)NC(=O)[C@H](CO)NC(=O)[C@H](CCCNC(=N)N)NC(=O)[C@H](CCC(N)=O)NC(=O)[C@H](CC(C)C)NC(=O)[C@H](Cc1ccccc1)NC(=O)[C@H](CC(=O)O)NC(=O)[C@H](C)NC(=O)[C@H](CC(C)C)NC(=O)[C@H](CCCNC(=N)N)NC(=O)[C@H](CCC(N)=O)NC(=O)[C@@H](NC(=O)[C@H](C)NC(=O)[C@@H]1CSSC[C@H](NC(=O)[C@H](CCCNC(=N)N)NC(=O)CC[C@H](NC(=O)CCCCCCCCCCCCCCCCCCC(=O)O)C(=O)O)C(=O)N[C@@H](CC(N)=O)C(=O)N[C@@H]([C@@H](C)O)C(=O)N[C@@H](C)C(=O)N[C@@H]([C@@H](C)O)C(=O)N1)[C@@H](C)O"}, "B4": {"name": "[19CD]-isoGlu-R-C( )-NTAT-C( )-ATQRLAHFLQRF-Gly(Me)-A-Ile(Me)-LSSTEVGSGT-Hyp-NH2 (Compd. 79) (peptide)", "peptide": "{C20 diacid-γGlu}-RCNTATCATQRLAHFLQRF[Sar]A[NMeI]LSSTEVGSGT[Hyp]-NH2", "modifications": "disulfide 2-7", "SMILES": "CC[C@H](C)[C@@H](C(=O)N[C@@H](CC(C)C)C(=O)N[C@@H](CO)C(=O)N[C@@H](CO)C(=O)N[C@H](C(=O)N[C@@H](CCC(=O)O)C(=O)N[C@H](C(=O)NCC(=O)N[C@@H](CO)C(=O)NCC(=O)N[C@H](C(=O)N1C[C@H](O)C[C@H]1C(N)=O)[C@@H](C)O)C(C)C)[C@@H](C)O)N(C)C(=O)[C@H](C)NC(=O)CN(C)C(=O)[C@H](Cc1ccccc1)NC(=O)[C@H](CCCNC(=N)N)NC(=O)[C@H](CCC(N)=O)NC(=O)[C@H](CC(C)C)NC(=O)[C@H](Cc1ccccc1)NC(=O)[C@H](Cc1c[nH]cn1)NC(=O)[C@H](C)NC(=O)[C@H](CC(C)C)NC(=O)[C@H](CCCNC(=N)N)NC(=O)[C@H](CCC(N)=O)NC(=O)[C@@H](NC(=O)[C@H](C)NC(=O)[C@@H]1CSSC[C@H](NC(=O)[C@H](CCCNC(=N)N)NC(=O)CC[C@H](NC(=O)CCCCCCCCCCCCCCCCCCC(=O)O)C(=O)O)C(=O)N[C@@H](CC(N)=O)C(=O)N[C@@H]([C@@H](C)O)C(=O)N[C@@H](C)C(=O)N[C@@H]([C@@H](C)O)C(=O)N1)[C@@H](C)O"}, "B5": {"name": "[19CD]-isoGlu-R-C( )-NTAT-C( )-ATQRLADFLQRSSF-Gly(Me)-A-Ile(Me)-LSSTEVGSGTP-NH2 (Compd. 80) (peptide)", "peptide": "{C20 diacid-γGlu}-RCNTATCATQRLADFLQRSSF[Sar]A[NMeI]LSSTEVGSGTP-NH2", "modifications": "disulfide 2-7", "SMILES": "CC[C@H](C)[C@@H](C(=O)N[C@@H](CC(C)C)C(=O)N[C@@H](CO)C(=O)N[C@@H](CO)C(=O)N[C@H](C(=O)N[C@@H](CCC(=O)O)C(=O)N[C@H](C(=O)NCC(=O)N[C@@H](CO)C(=O)NCC(=O)N[C@H](C(=O)N1CCC[C@H]1C(N)=O)[C@@H](C)O)C(C)C)[C@@H](C)O)N(C)C(=O)[C@H](C)NC(=O)CN(C)C(=O)[C@H](Cc1ccccc1)NC(=O)[C@H](CO)NC(=O)[C@H](CO)NC(=O)[C@H](CCCNC(=N)N)NC(=O)[C@H](CCC(N)=O)NC(=O)[C@H](CC(C)C)NC(=O)[C@H](Cc1ccccc1)NC(=O)[C@H](CC(=O)O)NC(=O)[C@H](C)NC(=O)[C@H](CC(C)C)NC(=O)[C@H](CCCNC(=N)N)NC(=O)[C@H](CCC(N)=O)NC(=O)[C@@H](NC(=O)[C@H](C)NC(=O)[C@@H]1CSSC[C@H](NC(=O)[C@H](CCCNC(=N)N)NC(=O)CC[C@H](NC(=O)CCCCCCCCCCCCCCCCCCC(=O)O)C(=O)O)C(=O)N[C@@H](CC(N)=O)C(=O)N[C@@H]([C@@H](C)O)C(=O)N[C@@H](C)C(=O)N[C@@H]([C@@H](C)O)C(=O)N1)[C@@H](C)O"}, "B6": {"name": "[19CD]-isoGlu-R-C( )-NTAT-C( )-ATQRLADFLQRSSF-Gly(Me)-A-Ile(Me)-LSSTEVGSTTP-NH2 (Compd. 82) (peptide)", "peptide": "{C20 diacid-γGlu}-RCNTATCATQRLADFLQRSSF[Sar]A[NMeI]LSSTEVGSTTP-NH2", "modifications": "disulfide 2-7", "SMILES": "CC[C@H](C)[C@@H](C(=O)N[C@@H](CC(C)C)C(=O)N[C@@H](CO)C(=O)N[C@@H](CO)C(=O)N[C@H](C(=O)N[C@@H](CCC(=O)O)C(=O)N[C@H](C(=O)NCC(=O)N[C@@H](CO)C(=O)N[C@H](C(=O)N[C@H](C(=O)N1CCC[C@H]1C(N)=O)[C@@H](C)O)[C@@H](C)O)C(C)C)[C@@H](C)O)N(C)C(=O)[C@H](C)NC(=O)CN(C)C(=O)[C@H](Cc1ccccc1)NC(=O)[C@H](CO)NC(=O)[C@H](CO)NC(=O)[C@H](CCCNC(=N)N)NC(=O)[C@H](CCC(N)=O)NC(=O)[C@H](CC(C)C)NC(=O)[C@H](Cc1ccccc1)NC(=O)[C@H](CC(=O)O)NC(=O)[C@H](C)NC(=O)[C@H](CC(C)C)NC(=O)[C@H](CCCNC(=N)N)NC(=O)[C@H](CCC(N)=O)NC(=O)[C@@H](NC(=O)[C@H](C)NC(=O)[C@@H]1CSSC[C@H](NC(=O)[C@H](CCCNC(=N)N)NC(=O)CC[C@H](NC(=O)CCCCCCCCCCCCCCCCCCC(=O)O)C(=O)O)C(=O)N[C@@H](CC(N)=O)C(=O)N[C@@H]([C@@H](C)O)C(=O)N[C@@H](C)C(=O)N[C@@H]([C@@H](C)O)C(=O)N1)[C@@H](C)O"}},
  "molecular_target": "T1, human amylin receptor 3 (hAMYR3), hCTR2 co-expressed with human receptor activity modifying protein 3 (hRAMP3) (human, UniProt P30988 25-474; O60896 24-148)",
  "T1 sequence (looked up) 1": "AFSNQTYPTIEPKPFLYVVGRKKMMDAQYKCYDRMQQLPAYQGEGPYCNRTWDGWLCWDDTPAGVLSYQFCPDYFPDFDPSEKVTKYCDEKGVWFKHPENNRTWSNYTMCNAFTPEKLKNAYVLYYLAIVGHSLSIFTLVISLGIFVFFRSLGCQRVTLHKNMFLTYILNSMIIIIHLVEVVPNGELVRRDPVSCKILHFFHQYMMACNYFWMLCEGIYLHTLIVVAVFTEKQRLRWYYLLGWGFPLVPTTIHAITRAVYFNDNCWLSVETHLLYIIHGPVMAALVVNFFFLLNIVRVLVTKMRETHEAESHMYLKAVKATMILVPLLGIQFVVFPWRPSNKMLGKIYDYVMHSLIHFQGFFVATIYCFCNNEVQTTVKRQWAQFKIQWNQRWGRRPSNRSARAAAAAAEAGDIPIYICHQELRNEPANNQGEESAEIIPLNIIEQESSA",
  "T1 sequence (looked up) 2": "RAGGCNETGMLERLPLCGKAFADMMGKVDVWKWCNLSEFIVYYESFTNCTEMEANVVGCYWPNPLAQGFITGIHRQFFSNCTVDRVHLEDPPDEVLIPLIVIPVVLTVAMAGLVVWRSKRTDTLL",
  "test": "cell-based or functional assay",
  "note": "*1 amine or outer side, *2 acyl side, *3 side chain or, on linkers, in order; H or OH if unused. Bridges are numbered along the chain shown (N, C = ends). [ ]: non-standard residue; d: D form. The star is where a group is joined. C20 diacid = O=C(O)CCCCCCCCCCCCCCCCCCC(=O)*; γGlu = O=C(O)[C@H](CCC(=O)[*:2])N[*:1]; Hyp = O=C(O)[C@@H]1C[C@@H](O)CN1; NMeI = CC[C@H](C)[C@H](NC)C(=O)O; Sar = CNCC(=O)O",
  "data": [
    {"binder": "B1", "values": [
      {"measurement": "hAMYR3 EC50 (nM); cAMP induction", "result": 0.23, "unit": "nM"}
    ]},
    {"binder": "B2", "values": [
      {"measurement": "hAMYR3 EC50 (nM); cAMP induction", "result": 0.54, "unit": "nM"}
    ]},
    {"binder": "B3", "values": [
      {"measurement": "hAMYR3 EC50 (nM); cAMP induction", "result": 0.32, "unit": "nM"}
    ]},
    {"binder": "B4", "values": [
      {"measurement": "hAMYR3 EC50 (nM); cAMP induction", "result": 0.23, "unit": "nM"}
    ]},
    {"binder": "B5", "values": [
      {"measurement": "hAMYR3 EC50 (nM); cAMP induction", "result": 0.28, "unit": "nM"}
    ]},
    {"binder": "{C20 diacid}-[γGlu]RCGTATCATERLAHFLERSSF[Sar]A[NMeI]LSSTEVGSNT[Hyp]-NH2 (disulfide 3-8)", "note": "[[19CD]-isoGlu-R-C( )-GTAT-C( )-ATERLAHFLERSSF-Gly(Me)-A-Ile(Me)-LSSTEVGSNT-Hyp-NH2 (Compd. 8)]", "values": [
      {"measurement": "hAMYR3 EC50 (nM); cAMP induction", "result": 0.36, "unit": "nM"}
    ]},
    {"binder": "B6", "values": [
      {"measurement": "hAMYR3 EC50 (nM); cAMP induction", "result": 0.53, "unit": "nM"}
    ]}
  ]
}
